Experimental data published in publication PMC3699834.

Substrate: N
Assay: cells, lysate or membranes
Settings: NH4Cl; oocytes clamped at −120 mV; Michaelis–Menten fit

B1: AMT1;3 (Arabidopsis thaliana) (protein)
chain: MSGAITCSAADLATLLGPNATAAADYICGQLGTVNNKFTDAAFAIDNTYLLFSAYLVFAMQLGFAMLCAGSVRAKNTMNIMLTNVLDAAAGGLFYYLFGYAFAFGGSSEGFIGRHNFALRDFPTPTADYSFFLYQWAFAIAAAGITSGSIAERTQFVAYLIYSSFLTGFVYPVVSHWFWSPDGWASPFRSADDRLFSTGAIDFAGSGVVHMVGGIAGLWGALIEGPRRGRFEKGGRAIALRGHSASLVVLGTFLLWFGWYGFNPGSFTKILVPYNSGSNYGQWSGIGRTAVNTTLSGCTAALTTLFGKRLLSGHWNVTDVCNGLLGGFAAITAGCSVVEPWAAIVCGFMASVVLIGCNKLAELVQYDDPLEAAQLHGGCGAWGLIFVGLFAKEKYLNEVYGATPGRPYGLFMGGGGKLLGAQLVQILVIVGWVSATMGTLFFILKRLNLLRISEQHEMQGMDMTRHGGFAYIYHDNDDESHRVDPGSPFPRSATPPRV
Km: 55 ± 15 µM
